Measured values: US20080019962A1

Key:
[1] = biological target: protease domain of Endotheliase-2 (ET2) (human) (UniProt Q9BYE2); experiment: continuous in vitro enzyme assay on rET2, Fab
[2] = biological target: protease domain of Endotheliase-2 (ET2) (human) (UniProt Q9BYE2); experiment: continuous in vitro enzyme assay, inhibition of ET2 protease activity by soluble Fab
[3] = biological target: protease domain of Endotheliase-2 (ET2) (human) (UniProt Q9BYE2); experiment: continuous in vitro enzyme assay on rET2, IgG1

protease domain of Endotheliase-2 (ET2) (human), sequence (Q9BYE2 other isoform, or with tags, fused parts or gaps limits assumed): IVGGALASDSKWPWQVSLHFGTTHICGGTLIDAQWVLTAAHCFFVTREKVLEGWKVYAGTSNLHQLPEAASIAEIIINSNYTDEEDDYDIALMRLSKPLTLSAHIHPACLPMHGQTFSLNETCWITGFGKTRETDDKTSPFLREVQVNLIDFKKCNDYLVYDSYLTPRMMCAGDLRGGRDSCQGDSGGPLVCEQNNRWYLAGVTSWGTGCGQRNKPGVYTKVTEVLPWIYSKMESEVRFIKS

Row | Ki [1] [nM] | Ki [2] [nM] | Ki [3] [nM] | Binder
1 | 0.07 | 0.07 |  | Fab D5 (Fab, V domains shown) VH: EVQLLESGGGLVQPGGSLRLSCAASGFTFSRYDMHWVRQAPGKGLEWVSSISSSGGYTAYADSVKGRFTISRDNSKNTLYLQMNSLRAEDTAVYYCARGARGTSQGYWGQGTLVTVSS VL: DIQMTQSPGTLSLSPGERGTLSCRASQFVSYSYLAWYQQKPGQAPRLLIYGASSRAKGIPDRFSGSGSGTDFTLTITRLEPEDFAVYYCQQYVPSVPWTFGQGTKVEVKR
2 |  |  | 0.086 | D5 IgG1 antibody (Fab D5 reformatted) (antibody, V domains shown) VH: EVQLLESGGGLVQPGGSLRLSCAASGFTFSRYDMHWVRQAPGKGLEWVSSISSSGGYTAYADSVKGRFTISRDNSKNTLYLQMNSLRAEDTAVYYCARGARGTSQGYWGQGTLVTVSS VL: DIQMTQSPGTLSLSPGERGTLSCRASQFVSYSYLAWYQQKPGQAPRLLIYGASSRAKGIPDRFSGSGSGTDFTLTITRLEPEDFAVYYCQQYVPSVPWTFGQGTKVEVKR
3 | 0.095 | 0.09 |  | Fab D2 (Fab, V domains shown) VH: EVQLLESGGGLVQPGGSLRLSCAASGFTFSRYRMYWVRQAPGKGLEWVSSISPSGGDTRYADSVKGRFTISRDNSQNTLYLQMNSLRAEDTAVYYCARGGPRGNKYYFDYWGQGTLVTVSS VL: DIQMTQSPSSLSASVGDRVTITCRASQTIDNYLNWYQQKPGKAPKLVVYAASTLQTRVPSRFSGSGSGTDFTLTIDSLKPEDFATYFCQQGFSNPWTFGQGTTVAMIR
4 |  |  | 0.11 | C9 IgG1 antibody (Fab C9 reformatted) (antibody, V domains shown) VH: EVQLLESGGGLVQPGGSLRLSCAASGFTFSRYPMFWVRQAPGKGLEWVSYISSSGGFTGYADSVKGRFTISRDNSKNTLYLQMNSLRAEDTAVYYCARGGPRGNKYYFDYWGQGTLVTVSS VL: QSVLTQPASVSGSPGQSITISCTGTSSDVGHYNYVSWYQQHPGKAPKVMIYDVSSRPSGVSDRFSGSKSGNTASLAISGLQAEDEADYYCSSYTSGDTLYVFGTGTKVTVLG
5 | 0.31 | 0.26 |  | Fab C9 (Fab, V domains shown) VH: EVQLLESGGGLVQPGGSLRLSCAASGFTFSRYPMFWVRQAPGKGLEWVSYISSSGGFTGYADSVKGRFTISRDNSKNTLYLQMNSLRAEDTAVYYCARGGPRGNKYYFDYWGQGTLVTVSS VL: QSVLTQPASVSGSPGQSITISCTGTSSDVGHYNYVSWYQQHPGKAPKVMIYDVSSRPSGVSDRFSGSKSGNTASLAISGLQAEDEADYYCSSYTSGDTLYVFGTGTKVTVLG
6 | 0.15 | 0.16 |  | Fab A2 (Fab, V domains shown) VH: EVQLLESGGGLVQPGGSLRLSCAASGFTFSRYRMYWVRQAPGKGLEWVSSISPSGGDTRYADSVKGRFTISRDNSQNTLYLQMNSLRAEDTAVYYCARGGPRGNKYYFDYWGQGTLVTVSS VL: DIQMTQSPSFLSAFVGDRVTITCRASQDIRSDLAWYQQTPGKAPKLLIYAASTLKDGAPSRFSGSGSGTEFTLTISSLHPEDLATYYCQHLNGHPAFGPGTKVNIQR
